Our source for the binding result and IC50 values is patent US5625031, “Peptide inhibitors of the p33^cdk2 and p34^cdc2 cell cycle regulatory kinases and human papillomavirus E7 oncoprotein” (Bristol-Myers Squibb Company, dated 1997).

Experiment [1] deals with T1, p34^cdc2 cell cycle regulatory kinase (Homo sapiens (Human), UniProt P06493). Briefly: IC50 column of Table 1 (ELISA based competition on p107 30mer-coated plate).
The target in experiment [2] is T1, p34^cdc2 cell cycle regulatory kinase. Briefly: IC50 column of Table 1 (ELISA based competition, competitor plate-bound p107 30mer).

Regarding LCAKYIMAK [p107 9mer peptide 715FK], the binding result in experiment [1] is given as “no binding (tested: >100 µM)”. In experiment [2], the IC50 is more than 100 µM.

For the molecule LCAAYIMAK [p107 9mer peptide 715FA], the binding result in experiment [1] is listed as “no binding (tested: >100 µM)”. This molecule came in with an IC50 in experiment [2] of more than 100 µM.

Regarding LCAFYKMAK [p107 9mer peptide 717IK], in experiment [1], the binding result is on record as “no binding (tested: >100 µM)”. Besides, in experiment [2], the IC50 is more than 100 µM.

Take YIMAK [p107 N5mer peptide]: the binding result in experiment [1] is given as “no binding (tested: >100 µM)”. This molecule also had an IC50 in experiment [2] of more than 100 µM.
